Results as given in patent publication US20080160035A1 (Regeneron, published 2008).

T1: hIL-4R on cells (STAT6-transfected HEK293, TF1, TF1/A12) (human, UniProt P24394 26-825)
T1 sequence (looked up): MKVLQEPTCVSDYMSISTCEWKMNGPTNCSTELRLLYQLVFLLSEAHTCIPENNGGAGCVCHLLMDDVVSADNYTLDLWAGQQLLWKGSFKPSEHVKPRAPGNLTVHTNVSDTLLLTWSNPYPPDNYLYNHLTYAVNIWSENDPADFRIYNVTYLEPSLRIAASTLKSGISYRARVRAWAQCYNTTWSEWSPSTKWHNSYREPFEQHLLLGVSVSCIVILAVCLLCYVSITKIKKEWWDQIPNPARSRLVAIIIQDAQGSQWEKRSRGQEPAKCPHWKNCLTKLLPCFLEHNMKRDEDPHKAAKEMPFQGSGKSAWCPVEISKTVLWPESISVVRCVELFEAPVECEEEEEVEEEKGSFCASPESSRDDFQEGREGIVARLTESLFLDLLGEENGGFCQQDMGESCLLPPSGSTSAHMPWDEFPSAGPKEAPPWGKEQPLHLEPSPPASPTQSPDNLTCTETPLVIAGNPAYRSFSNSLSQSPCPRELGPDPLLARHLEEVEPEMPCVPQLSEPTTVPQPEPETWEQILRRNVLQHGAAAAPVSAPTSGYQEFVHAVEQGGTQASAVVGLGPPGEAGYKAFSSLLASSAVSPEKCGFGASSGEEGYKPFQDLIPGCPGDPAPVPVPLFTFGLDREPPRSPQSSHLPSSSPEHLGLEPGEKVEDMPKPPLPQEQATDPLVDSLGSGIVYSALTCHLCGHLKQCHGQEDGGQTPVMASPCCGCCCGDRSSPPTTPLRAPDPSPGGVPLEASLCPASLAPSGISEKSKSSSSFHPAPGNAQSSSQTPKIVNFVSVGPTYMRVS

T2: dimeric hIL-4R-hFc (human, UniProt P24394 26-232)
T2 construct: also called hIL-4R-Fc; not shown: human Fc (hFc)
T2 sequence: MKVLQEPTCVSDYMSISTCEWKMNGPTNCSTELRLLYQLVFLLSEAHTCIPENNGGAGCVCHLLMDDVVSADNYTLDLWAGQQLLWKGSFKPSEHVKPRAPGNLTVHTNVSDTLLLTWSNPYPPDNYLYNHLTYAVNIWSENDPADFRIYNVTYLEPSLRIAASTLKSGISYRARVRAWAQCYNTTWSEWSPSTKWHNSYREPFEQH

T3: monomeric hIL-4R (R&D Systems) (human, UniProt P24394 26-231)
T3 construct: Bought (R&D Systems); also called hIL-4R monomer
T3 sequence: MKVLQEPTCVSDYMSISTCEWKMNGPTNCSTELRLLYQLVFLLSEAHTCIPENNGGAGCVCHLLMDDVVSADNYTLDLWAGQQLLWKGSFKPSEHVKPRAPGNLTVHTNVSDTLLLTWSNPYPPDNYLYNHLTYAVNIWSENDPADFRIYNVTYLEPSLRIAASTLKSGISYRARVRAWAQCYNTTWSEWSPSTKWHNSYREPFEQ

T4: mouse IL-4R (mouse, UniProt P16382 26-233, limits assumed)
T4 sequence (looked up): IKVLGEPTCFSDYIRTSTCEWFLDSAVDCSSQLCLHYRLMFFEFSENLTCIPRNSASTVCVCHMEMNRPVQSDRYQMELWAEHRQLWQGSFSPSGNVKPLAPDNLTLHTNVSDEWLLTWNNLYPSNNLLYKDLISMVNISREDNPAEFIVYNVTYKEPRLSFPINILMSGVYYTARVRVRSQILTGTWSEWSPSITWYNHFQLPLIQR

T5: hIL-4R (human, UniProt P24394 26-232)
T5 construct: also called human IL-4 receptor; antigen
T5 sequence (looked up): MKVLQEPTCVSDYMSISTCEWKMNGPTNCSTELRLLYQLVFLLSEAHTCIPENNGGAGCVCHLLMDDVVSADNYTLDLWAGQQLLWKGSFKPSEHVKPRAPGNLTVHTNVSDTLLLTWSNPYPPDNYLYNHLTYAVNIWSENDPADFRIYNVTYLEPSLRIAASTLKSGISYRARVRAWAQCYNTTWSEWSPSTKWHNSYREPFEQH


How the values were obtained:
[1] = molecular target: T1, hIL-4R on cells (STAT6-transfected …); test: cell-based or functional assay
dimeric hIL-4R-hFc [2] = molecular target: T2, dimeric hIL-4R-hFc; test: ELISA; antibody titrated against 25 pM hIL-4R-Fc, free receptor caught on hIL-4 plate
[3] = molecular target: T3, monomeric hIL-4R (R&D Systems); test: SPR (BIAcore 2000); antibody captured, monomeric hIL-4R injected
dimeric hIL-4R-hFc [4] = molecular target: T2, dimeric hIL-4R-hFc; test: SPR; reduction of hIL-4 (50 nM) binding to captured hIL-4R-hFc after antibody; competitor hIL-4
Source text: Purified hIL-4R-hFc molecules were captured by goat anti-human IgG polyclonal antibody immobilized on CM-5 to a density of 260 RU, to prepare a receptor-coated surface.

[5] = molecular target: T1, hIL-4R on cells (STAT6-transfected …); test: cell-based or functional assay; remark: listed apart in the source
dimeric hIL-4R-hFc [6] = molecular target: T2, dimeric hIL-4R-hFc; test: SPR (BIAcore 2000); antibody captured, dimeric hIL-4R-hFc injected
mouse IL-4R = molecular target: T4, mouse IL-4R; test: binding affinity test of Example 2 (method not restated)
hIL-4R = molecular target: T5, hIL-4R; test: screen of hybridoma conditioned media

Row | Binder | STAT6 Bioassay IC50 (HEK293 STAT6 luciferase, 10 pM hIL-4) [1] | TF1 Bioassay IC50 (proliferation, 50 pM hIL-4) [1] | IC50 (dimeric hIL-4R-hFc [2]) | Kd [3] | T1/2 monomeric [3] | % Inhibition (BIAcore) (dimeric hIL-4R-hFc [4]) | STAT6 Bioassay IC50 (HEK293 STAT6 luciferase, 40 pM hIL-13) [5] | TF1 Bioassay IC50 (proliferation, 150 pM hIL-13) [5] | Kd (dimeric hIL-4R-hFc [6]) | T1/2 dimeric (dimeric hIL-4R-hFc [6]) | binding result (mouse IL-4R) | TF1/A12 Bioassay IC50 (proliferation, 20 pM hIL-4) [1] | binding result (hIL-4R)
1 | VAK12B11-9 (antibody, V domains shown, Apparently tested with mouse constant region (anti-mouse IgG capture/detection)) VH: QVQLVESGGGVVQPGRSLRLSCAASGFTFSSYAMYWVRQAPGKGLEWVAVISYDGSNKYYTDSVKGRFTVSRDNSKNTLFLQMNSLRAEDTALYYCAKESSSYGLDVWGQGTTVTVSS VL: DIQMTQSPSTLSASVGDRVAITCRASQSISNWLAWYQQKPGKAPKLLISKASSLKSGVPSRFSGSGSGTEFTLTISSLQPDDFAAYYCQQYNSYSYTFGQGTKLEIK | 0.49 nM | 0.57 nM | 0.099 nM | 0.41 nM | 2 h | 96% | 0.37 nM | 1.6 nM | 0.036 nM | 12 h | no binding | – | –
2 | VAB 7B9-3 (antibody, V domains shown, Apparently tested with mouse constant region (anti-mouse IgG capture/detection)) VH: QVQLVQSGAEVKKPGASVKVSCKDSAYTFNRYGISWVRQAPGQGLEWMGWISAYTGNTVYAQKLQGRVTMTTDNSTSTAYMELRSLRSDDTAVYYCARDKSIFGVVRGFDYWGQGTLVTVSS VL: EIVMTQSPVTLSLSPGERATLPCRASQSVSSSLAWYQQKAGQSPRLLIYGASTRATGIPARFSGSGSGTEFTLTISNLQSEDFAVYYCQQYNNWPLTFGGGTKVEIK | 3.4 nM | – | 0.059 nM | 1.01 nM | 0.217 h | 96% | 1.1 nM | – | 0.052 nM | 6.1 h | no binding | 8.2 nM | –
3 | VAB 13A1-6 (antibody, V domains shown) VH: EVQLVESGGGLVQPGRSLRLSCAASGFTFDNYAMHWVRQAPGKGLEWVSGIRWNSGSIGYADSVKGRFTISRDNAKNSLYLQMNSLRAEDTALYYCAKEGGYSGYRPGPFFDYWGQGTLVTVSS VL: EIVMTQSPATLSVSPGERATLSCRASQSVNYNLAWYQHKPGQAPRLLIYGASTRATGIPARFSGSGSGTEFTLTISSLQSEDFAVYYCQQYNNWPLTFGGGTKVEIK | – | – | – | – | – | – | – | – | – | – | – | – | binds
4 | VAK10G12-5 (antibody, V domains shown, Apparently tested with mouse constant region (anti-mouse IgG capture/detection)) VH: QVQLVESGGGVVQPGGSLRLSCAASGFTFSSYGMHWVRQAPGRGLEWVAVLSYDGSKEFYADSVKVRFTVSRDNSKNTLYLQMSSLRVEDTAIYFCAKEGRTGNWFDPWGQGTLVAVSS VL: DIQMTQSPSSLSASVGDRVTITCRASQAINNFLAWFQQKPGKTPKSLIFATSSLQSGVPSRFSGSESGTDFTLTISSLQPEDFATYYCQQYNSHPWTFGQGTKVEIK | 0.36 nM | 0.58 nM | 0.059 nM | 0.09 nM | 6 h | 94% | 0.26 nM | 1.9 nM | 0.007 nM | 46 h | no binding | – | –
